Reference: patent publication EP1645881A1

Assays:
[1] = target: monomeric Red Fluorescent Protein 1 (mRFP1); experiment: dual-colour FCCS in living HeLa cells, proteins expressed separately from pIRES-EGFP-mRFP1 (negative control, 0% interaction)
[2] = target: JunΔdimΔDNA-mRFP1 (human) (UniProt P05412); experiment: dual-colour FCCS in living HeLa cells; references: 13% for no interaction, 45% for 100% interaction
Chain of UniProt P05412 (P05412 other isoform, or with tags, fused parts or gaps mutant): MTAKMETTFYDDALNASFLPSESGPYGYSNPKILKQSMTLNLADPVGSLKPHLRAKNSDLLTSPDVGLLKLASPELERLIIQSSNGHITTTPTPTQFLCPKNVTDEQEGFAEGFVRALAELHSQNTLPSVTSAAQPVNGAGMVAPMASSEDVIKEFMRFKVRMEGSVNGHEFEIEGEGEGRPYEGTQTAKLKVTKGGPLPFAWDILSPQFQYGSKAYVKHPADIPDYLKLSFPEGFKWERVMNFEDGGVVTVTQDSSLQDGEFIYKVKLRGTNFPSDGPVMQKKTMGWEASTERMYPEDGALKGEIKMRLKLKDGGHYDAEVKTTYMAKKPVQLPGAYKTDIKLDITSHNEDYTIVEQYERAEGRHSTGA

Substance | cross-correlation amplitude (percent of the autocorrelation signal) [1] [%] | cross-correlation amplitude [2] [%]
Enhanced Green Fluorescent Protein (EGFP) | 13 | –
FosΔdimΔDNA-EGFP (from UniProt P01100 1-138) | – | 18
